Assays:
[1] = biological target: T1, recombinant human EGFR/ErbB1/HER1 with C-terminal His tag, Cy5-labeled (human, UniProt P00533 25-645, Cy5 label (reacted with Cy5 Mono NHS Ester; sites not stated)); assay: competitive TR-FRET (Eu-amivantamab/Cy5-EGFR), EC50 ratio vs Reference Material; Ex. 12 drug product with rHuPH20, 3 months at 40 C
T1 construct: Commercial protein; also called Cy5-EGFR; Cy5-labeled EGFR antigen; not shown: C-terminal His tag
From the text: (§1) In this procedure, varying concentrations of unlabeled bispecific EGFR-cMet antibody sample compete with donor fluorophore (Europium (Eu) chelate) labeled bispecific EGFR-cMet antibody for binding to an acceptor fluorophore (Cy5)-labeled EGFR antigen. Excitation of the donor fluorophore results in a transfer of energy to the bound acceptor fluorophore (FRET process). The resultant FRET is detected by emission of light at 665 nm using a microplate reader capable of measuring time-resolved fluorescence. Sample dose response curves are compared to the RM.
(§2) EGFR Binding Materials and Methods. Certified commercial EGFR, a recombinant human EGFR/ErbB1/HER1 with C-terminal His tag is reacted with certified commercial Cy5 Mono NHS Ester to produce Cy5-labeled EGFR. Validated bispecific EGFR-cMet antibody is reacted with certified commercial Europium (Eu) chelate to produce Eu-labeled bispecific EGFR-cMet antibody. […] Fluorescence is then measured by spectrophotometry at 665 nm, plotted against antibody concentration and analyzed by a four-parameter logistic model. The antibody concentration required to obtain half of the maximum fluorescence response (EC50) is determined for RM, assay control and samples. The potencies of assay control and samples are calculated based on the ratio of the sample (or control) and RM EC50 values and reported as a percentage activity relative to the RM.

[2] = biological target: T2, recombinant cMet/HGFR with c-terminal His-tag, Cy5-labeled (UniProt P08581 25-932, limits assumed, Cy5 label (reacted with Cy5 Mono NHS Ester; sites not stated)); assay: competitive TR-FRET (Eu-amivantamab/Cy5-c-MET), EC50 ratio vs Reference Material; Ex. 2 Formulation 1 (10 mM histidine), 3 months at 25 C
T2 construct: Commercial protein; also called Cy5-c-MET; Cy5-labeled c-MET antigen; not shown: C-terminal His-tag
From the text: (§3) In this procedure, varying concentrations of unlabeled bispecific EGFR-cMet antibody sample compete with donor fluorophore (Europium (Eu) chelate) labeled bispecific EGFR-cMet antibody for binding to an acceptor fluorophore (Cy5)-labeled c-MET antigen. Excitation of the donor fluorophore results in a transfer of energy to the bound acceptor fluorophore (FRET process). The resultant FRET is detected by emission of light at 665 nm using a microplate reader capable of measuring time-resolved fluorescence. Sample dose response curves are compared to the Reference Material (RM).
as §2, with “c-MET Binding” for “EGFR Binding”, “commercial cMet,” for “commercial EGFR,”, “recombinant cMet/HGFR” for “recombinant human EGFR/ErbB1/HER1”, “with c-terminal His-tag” for “with C-terminal His tag”, “Cy5-labeled c-MET.” for “Cy5-labeled EGFR.”, “produce Eu labeled” for “produce Eu-labeled”

[3] = biological target: T2, recombinant cMet/HGFR with c-terminal …; assay: competitive TR-FRET (Eu-amivantamab/Cy5-c-MET), EC50 ratio vs Reference Material; Ex. 11 drug product, 9 months at 5 C
From the text: as §3
as §2, with “c-MET Binding” for “EGFR Binding”, “commercial cMet,” for “commercial EGFR,”, “recombinant cMet/HGFR” for “recombinant human EGFR/ErbB1/HER1”, “with c-terminal His-tag” for “with C-terminal His tag”, “Cy5-labeled c-MET.” for “Cy5-labeled EGFR.”, “produce Eu labeled” for “produce Eu-labeled”

[4] = biological target: T1, recombinant human EGFR/ErbB1/HER1 with …; assay: competitive TR-FRET (Eu-amivantamab/Cy5-EGFR), EC50 ratio vs Reference Material; Ex. 11 drug product, 0 months, 40 C table
From the text: as §1, §2

[5] = biological target: T1, recombinant human EGFR/ErbB1/HER1 with …; assay: competitive TR-FRET (Eu-amivantamab/Cy5-EGFR), EC50 ratio vs Reference Material; Ex. 3 acetate formulation, 6 months at 25 C then 5 freeze/thaw cycles
From the text: as §1, §2

[6] = biological target: T1, recombinant human EGFR/ErbB1/HER1 with …; assay: competitive TR-FRET (Eu-amivantamab/Cy5-EGFR), EC50 ratio vs Reference Material; Ex. 12 drug product with rHuPH20, 0 months, 5 C table
From the text: as §1, §2

[7] = biological target: T1, recombinant human EGFR/ErbB1/HER1 with …; assay: competitive TR-FRET (Eu-amivantamab/Cy5-EGFR), EC50 ratio vs Reference Material; Ex. 11 drug product, 1 month at 40 C
From the text: as §1, §2

[8] = biological target: T2, recombinant cMet/HGFR with c-terminal …; assay: competitive TR-FRET (Eu-amivantamab/Cy5-c-MET), EC50 ratio vs Reference Material; Ex. 2 Formulation 1 (10 mM histidine), T0, 5 C table
From the text: as §3
as §2, with “c-MET Binding” for “EGFR Binding”, “commercial cMet,” for “commercial EGFR,”, “recombinant cMet/HGFR” for “recombinant human EGFR/ErbB1/HER1”, “with c-terminal His-tag” for “with C-terminal His tag”, “Cy5-labeled c-MET.” for “Cy5-labeled EGFR.”, “produce Eu labeled” for “produce Eu-labeled”

B1: amivantamab (bispecific antibody, human IgG1, kappa)
heavy 1: not shown
light 1: not shown
heavy 2: not shown
light 2: DIQMTQSPSSVSASVGDRVTITCRASQGISNWLAWFQHKPGKAPKLLIYAASSLLSGVPSRFSGSGSGTDFTLTISSLQPEDFATYYCQQANSFPITFGQGTRLEIKRTVAAPSVFIFPPSDEQLKSGTASVVCLLNNFYPREAKVQWKVDNALQSGNSQESVTEQDSKDSTYSLSSTLTLSKADYEKHKVYACEVTHQGLSSPVTKSFNRGEC
notes: The samples tested were high concentration (160 mg/mL) formulations, fresh or stored or stressed; also called JNJ-61186372; bispecific EGFR-cMet antibody
[1]
  EGFR Binding activity relative to Reference Material (%): 9%
[2]
  cMET Binding % activity relative to RM: 94%
[3]
  cMET Binding activity relative to Reference Material (%): 101%
[4]
  EGFR Binding activity relative to Reference Material (%): 89%
[5]
  EGFR Binding % activity relative to RM: 95%
[6]
  EGFR Binding activity relative to Reference Material (%): 92%
[7]
  EGFR Binding activity relative to Reference Material (%): 39%
[8]
  cMET Binding % activity relative to RM: 87%
